# Experimental data taken from patent US20210393776A1 (FABION PHARMACEUTICALS, published 2021).
# Read-outs that look alike come from different tables or passages of the source.
# T1: full length human EpCAM on CHO cells (human, UniProt P16422 24-314)
# T1 construct: CHO cells stably expressing full length human EpCAM; also called hu-EpCAM-FL; human EpCAM-FL
# T1 sequence: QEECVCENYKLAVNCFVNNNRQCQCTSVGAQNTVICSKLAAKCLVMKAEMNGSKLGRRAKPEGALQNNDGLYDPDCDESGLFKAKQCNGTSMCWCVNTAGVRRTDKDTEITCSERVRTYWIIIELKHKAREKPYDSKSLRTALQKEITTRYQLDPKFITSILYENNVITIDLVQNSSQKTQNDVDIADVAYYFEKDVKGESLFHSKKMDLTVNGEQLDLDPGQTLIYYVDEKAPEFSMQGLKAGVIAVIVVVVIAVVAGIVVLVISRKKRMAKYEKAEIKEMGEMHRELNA
# How the values were obtained:
# [1] = biological target: T1, full length human EpCAM on CHO cells; assay: flow cytometry on CHO cells stably expressing full length human EpCAM, PE detection
# Protocol: (§1) In general, cells were blocked in 1% BSA/PBS for 1 hr at 4 C and antibodies of interest were diluted into 1% BSA/PBS were added to blocked cells for incubation at 4° C. for 1 hr. after one wash with 1% BSA/PBS, staining procedures vary depending on the availability of antibodies or fluorescent antibody conjugate. In some case, direct fluorescence conjugates were used. In other cases, anti affinity tag antibodies (secondary antibody) were used to incubate with the cells followed by anti-species antibody conjugated with a particular fluorophore. In some other experiments, antibody (or other affinity reagent such as streptavidin) with fluorescence conjugate was used directly as secondary antibody (secondary reagent).
# [2] = biological target: T2, recombinant cyno CD3epsilon/delta Fc(K-H) heterodimer (cynomolgus); assay: ELISA, immobilised antigen, biotinylated protein, streptavidin-HRP, ABTS, OD405
# T2 construct: also called cynomolgus CD3epsilon/delta; recombinant cyno CD3epsilon/delta heterodimeric Fc protein; copies: 1 + 1
# [3] = biological target: T3, human CD3epsilonAA1-27.Fc (human); assay: as above
# T3 construct: also called recombinant human CD3epsilon N-terminal peptide (aa1-27.Fc fusion); CD3epsilon N-terminal amino acid 1-27 peptide Fc fusion
# [4] = biological target: T2, recombinant cyno CD3epsilon/delta …; assay: ELISA, immobilised antigen, His6-tagged Fab, anti-His6 antibody HRP conjugate, ABTS, OD405 [continued) E]
# Protocol: (§2) Humanized Fab proteins are his6 tagged at the C-terminus of Fd and the Fabs bound to the 96-well plate immobilized antigens were detected using anti his6 tag mouse antibody conjugated with HRP. ABTS was used as substrate and absorptions were measured at 405 nm.
# (§3) MAXISORP® plates were used for ELISA binding assays. 50 μl of 1 μg/ml of antigens in 50 mM NaHCO₃were used to coat the plates at 4° C. overnight followed by incubation with 200 μl of 5% dry milk/TBS-0.05% TWEEN®-20 (i.e., polysorbate 20) (MTBS-T)/well. Antibodies were usually diluted in 5% MTBS-T and transferred to antigen coated plates and incubated for 1 hr with gentle shaking at room temperature. Bound antibodies were detected either by streptavidin-HRP (for detecting biotinylated antibodies) or anti-his tag-HRP conjugate (for his tagged antibodies). ABTS™ (i.e., 2,2′-azino-bis(3-ethylbenzothiazoline-6-sulphonic acid) solution in 50 mM citrate buffer was used for detection with OD405 measurement on using a microplate reader (Biotek).
# [5] = biological target: T3, human CD3epsilonAA1-27.Fc; assay: ELISA, immobilised antigen, His6-tagged Fab, anti-His6 antibody HRP conjugate, ABTS, OD405
# Protocol: as §2, §3
# [6] = biological target: T4, recombinant human CD3epsilon/delta Fc(K-H) heterodimer (human); assay: as above
# T4 construct: also called human CD3epsilon/delta knob and hole Fc heterodimer; copies: 1 + 1
# Protocol: as §2, §3
# [7] = biological target: T3, human CD3epsilonAA1-27.Fc; assay: as above; remark: listed apart in the source
# Protocol: as §2, §3
# [8] = biological target: T2, recombinant cyno CD3epsilon/delta …; assay: ELISA, immobilised antigen, His6-tagged Fab, anti-His6 antibody HRP conjugate, ABTS, OD405 [continued) F]
# Protocol: as §2, §3
# [9] = biological target: T4, recombinant human CD3epsilon/delta …; assay: ELISA, immobilised antigen, His6-tagged Fab, anti-His6 antibody HRP conjugate, ABTS, OD405; remark: listed apart in the source
# Protocol: as §2, §3
# [10] = biological target: T1, full length human EpCAM on CHO cells; assay: flow cytometry on CHO cells stably expressing full length human EpCAM, PE detection; remark: listed apart in the source
# Protocol: as §1
# T4 sequence (chain, as listed by the source mutant limits assumed, chain 1 of 2): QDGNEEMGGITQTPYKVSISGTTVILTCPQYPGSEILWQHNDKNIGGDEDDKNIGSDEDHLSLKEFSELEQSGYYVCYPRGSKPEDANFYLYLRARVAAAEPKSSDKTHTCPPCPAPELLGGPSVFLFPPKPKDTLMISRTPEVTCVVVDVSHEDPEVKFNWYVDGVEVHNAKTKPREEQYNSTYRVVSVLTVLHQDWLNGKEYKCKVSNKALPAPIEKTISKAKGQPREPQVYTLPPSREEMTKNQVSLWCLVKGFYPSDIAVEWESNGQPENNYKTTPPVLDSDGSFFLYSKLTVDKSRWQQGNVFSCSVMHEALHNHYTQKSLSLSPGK
# T4 sequence (chain, as listed by the source mutant limits assumed, chain 2 of 2): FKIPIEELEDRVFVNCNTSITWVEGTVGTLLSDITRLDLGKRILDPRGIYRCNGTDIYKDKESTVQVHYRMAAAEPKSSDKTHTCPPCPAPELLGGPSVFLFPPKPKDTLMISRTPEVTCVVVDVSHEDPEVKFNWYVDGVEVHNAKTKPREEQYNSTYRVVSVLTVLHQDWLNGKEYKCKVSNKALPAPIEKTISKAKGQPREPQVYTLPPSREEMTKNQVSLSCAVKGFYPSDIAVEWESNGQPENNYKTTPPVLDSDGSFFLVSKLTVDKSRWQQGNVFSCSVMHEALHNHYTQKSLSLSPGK
Binder,binding result [5],binding result [7],binding result [8],binding result [9],further results
"EpCAM1.2-(L)-hu-1F3.1 Fab (bispecific antibody, member of group m20; also called EpCAM1.2-(L)-hu-1F3 Fab) heavy chain Fd (VH-CH1), unfused: EVQLVESGGGLVQPGGSLRLSCAASGFTFSTYAMNWVRQAPGKGLEWVSRIRSKYNNYATYYADSVKDRFTISRDDSKNTLYLQMNSLRAEDTAVYYCARHGNFGNSYVSWFAYWGQGTMVTVSSASTKGPSVFPLAPCSRSTSESTAALGCLVKDYFPEPVTVSWNSGALTSGVHTFPAVLQSSGLYSLSSVVTVPSSNFGTQTYTCNVDHKPSNTKVDKTVGGGGSHHHHHHH light chain with anti-EpCAM scFv EpCAM1.2 at the N-terminus: EVQLVESGGGLVQPGGSLRLSCAASGFTFSNYWMSWVRQAPGKGLEWVANIKQDGSEKFYVDSVKGRFTISRDNAKNSLYLQMNSLRAEDMAVYYCARVGGAWELGYWGQGTLVTVSAGGGGSGGGGSGGGGSGAQSVLTQPPSVSGAPGQRVTISCTGSSSNIGSYYGVHWYQQLPGTAPKLLIYSDTNRPSGVPDRFSGSKSGTSASLAITGLQAEDEADYYCQSYDSSLSGRVFGGGTKLTVLGRAQAVVTQEPSLTVSPGGTVTLTCRSSTGAVTTSNYANWVQQKPGQAPRGLIGGTNKRAPGTPARFSGSLLGGKAALTLSGVQPEDEAEYYCALWYSNLWVFGGGTKLTVLGQPKAAPSVTLFPPSSEELQANKATLVCLISDFYPGAVTVAWKADSSPVKAGVETTTPSKQSNNKYAASSYLSLTPEQWKSHRSYSCQVTHEGSTVEKTVAPTECS",,,,,binding result [1]: binds; binding result [2]: binds; binding result [3]: binds
"hu-1F3.3 Fab (Fab, V domains shown, His6 tag at the C-terminus of the Fd) VH: EVQLVESGGGLVQPGGSLRLSCAASGFTFSTYAMNWVRQAPGKGLEWVARIRSKYNNYATYYADSVKDRFTISRDDSKNTLYLQMNSLRAEDTAVYYCARHGNFGNSYVSWFAYWGQGTMVTVSS VL: QAVVTQEPSLTVSPGGTVTLTCRSSTGAVTTSNYANWVQQKPGQAPRGLIGGTNKRAPGTPARFSGSLLGGKAALTLSGVQPEDEAEYYCALWYSNLWVFGGGTKLTVL",binds,,,,binding result [4]: binds; binding result [6]: binds
"hu-1F3.8 Fab (Fab, V domains shown, His6 tag at the C-terminus of the Fd) VH: EVQLVESGGGLVQPGGSLRLSCAASGFTFSTYAMNWVRQAPGKGLEWVARIRSKYNNYATYYADSVKDRFTISRDDSKNTLYLQMNSLRAEDTAVYYCARHGNFGNSYVSWFAYWGQGTMVTVSS VL: QAVVTQEPSLTVSPGGTVTLTCRSSTGAVTTSNYANWFQQKPGQAPRGLIGGTNKRAPGTPARFSGSLLGGKAALTLSGVQPEDEAEYYCALWYSNLWVFGGGTKLTVLG",,binds,binds,binds,
"hu-1F3.9 Fab (Fab, V domains shown, His6 tag at the C-terminus of the Fd) VH: EVQLVESGGGLVQPGGSLRLSCAASGFTFSTYAMNWVRQAPGKGLEWVARIRSKYNNYATYYADSVKDRFTISRDDSKNTLYLQMNSLRAEDTAVYYCVRHGNFGNSYVSWFAYWGQGTMVTVSS VL: QAVVTQEPSLTVSPGGTVTLTCRSSTGAVTTSNYANWFQQKPGQAPRGLIGGTNKRAPGTPARFSGSLLGGKAALTLSGVQPEDEAEYYCALWYSNLWVFGGGTKLTVLG",,binds,binds,binds,
"hu-1F3.6 Fab (Fab, V domains shown, His6 tag at the C-terminus of the Fd) VH: EVQLVESGGGLVQPGGSLRLSCAASGFTFSTYAMNWVRQAPGKGLEWVSRIRSKYNNYATYYADSVKDRFTISRDDSKNTLYLQMNSLRAEDTAVYYCARHGNFGNSYVSWFAYWGQGTMVTVSS VL: QAVVTQEPSLTVSPGGTVTLTCRSSTGAVTTSNYANWFQQKPGQAPRGLIGGTNKRAPGTPARFSGSLLGGKAALTLSGVQPEDEAEYYCALWYSNLWVFGGGTKLTVLG",,binds,binds,binds,
"hu-1F3.1 Fab (Fab, V domains shown, His6 tag at the C-terminus of the Fd; No entry is named hu-1F3-1LC; also called hu-1F3 Fab; humanized anti CD3 antibody Fab, hu-1F3) VH: EVQLVESGGGLVQPGGSLRLSCAASGFTFSTYAMNWVRQAPGKGLEWVSRIRSKYNNYATYYADSVKDRFTISRDDSKNTLYLQMNSLRAEDTAVYYCARHGNFGNSYVSWFAYWGQGTMVTVSS VL: QAVVTQEPSLTVSPGGTVTLTCRSSTGAVTTSNYANWVQQKPGQAPRGLIGGTNKRAPGTPARFSGSLLGGKAALTLSGVQPEDEAEYYCALWYSNLWVFGGGTKLTVL",binds,,,,binding result [10]: no binding; binding result [4]: binds; binding result [6]: binds
"hu-1F3.10 Fab (Fab, V domains shown, His6 tag at the C-terminus of the Fd) VH: EVQLVESGGGLVQPGGSLRLSCAASGFTFNTYAMNWVRQAPGKGLEWVARIRSKYNNYATYYADSVKDRFTISRDDSKNTLYLQMNSLRAEDTAVYYCVRHGNFGNSYVSWFAYWGQGTMVTVSS VL: QAVVTQEPSLTVSPGGTVTLTCRSSTGAVTTSNYANWFQQKPGQAPRGLIGGTNKRAPGTPARFSGSLLGGKAALTLSGVQPEDEAEYYCALWYSNLWVFGGGTKLTVLG",,binds,binds,binds,
"hu-1F3.2 Fab (Fab, V domains shown, His6 tag at the C-terminus of the Fd) VH: EVQLVESGGGLVQPGGSLRLSCAASGFTFNTYAMNWVRQAPGKGLEWVSRIRSKYNNYATYYADSVKDRFTISRDDSKNTLYLQMNSLRAEDTAVYYCARHGNFGNSYVSWFAYWGQGTMVTVSS VL: QAVVTQEPSLTVSPGGTVTLTCRSSTGAVTTSNYANWVQQKPGQAPRGLIGGTNKRAPGTPARFSGSLLGGKAALTLSGVQPEDEAEYYCALWYSNLWVFGGGTKLTVL",binds,,,,binding result [4]: binds; binding result [6]: binds
"hu-1F3.5 Fab (Fab, V domains shown, His6 tag at the C-terminus of the Fd; also called huIF3.5) VH: EVQLVESGGGLVQPGGSLRLSCAASGFTFNTYAMNWVRQAPGKGLEWVARIRSKYNNYATYYADSVKDRFTISRDDSKNTLYLQMNSLRAEDTAVYYCVRHGNFGNSYVSWFAYWGQGTMVTVSS VL: QAVVTQEPSLTVSPGGTVTLTCRSSTGAVTTSNYANWVQQKPGQAPRGLIGGTNKRAPGTPARFSGSLLGGKAALTLSGVQPEDEAEYYCALWYSNLWVFGGGTKLTVL",,,,,EC50 (read off the curve) [4]: ~2 nM; EC50 (read off the curve) [5]: ~2 nM; EC50 (read off the curve) [6]: ~3 nM
"hu-1F3.4 Fab (Fab, V domains shown, His6 tag at the C-terminus of the Fd) VH: EVQLVESGGGLVQPGGSLRLSCAASGFTFSTYAMNWVRQAPGKGLEWVARIRSKYNNYATYYADSVKDRFTISRDDSKNTLYLQMNSLRAEDTAVYYCVRHGNFGNSYVSWFAYWGQGTMVTVSS VL: QAVVTQEPSLTVSPGGTVTLTCRSSTGAVTTSNYANWVQQKPGQAPRGLIGGTNKRAPGTPARFSGSLLGGKAALTLSGVQPEDEAEYYCALWYSNLWVFGGGTKLTVL",binds,,,,
"hu-1F3.7 Fab (Fab, V domains shown, His6 tag at the C-terminus of the Fd) VH: EVQLVESGGGLVQPGGSLRLSCAASGFTFNTYAMNWVRQAPGKGLEWVSRIRSKYNNYATYYADSVKDRFTISRDDSKNTLYLQMNSLRAEDTAVYYCARHGNFGNSYVSWFAYWGQGTMVTVSS VL: QAVVTQEPSLTVSPGGTVTLTCRSSTGAVTTSNYANWFQQKPGQAPRGLIGGTNKRAPGTPARFSGSLLGGKAALTLSGVQPEDEAEYYCALWYSNLWVFGGGTKLTVLG",,binds,binds,binds,
